These results are taken from paper PMC9106921 (Nature immunology, 2022).

In the assay the target is T1, recombinant cytoplasmic tail of CD4 (residues 421-458, C422S, C455S) (human, UniProt P01730 421-458, C422S | C455S).
T1 chain (looked up): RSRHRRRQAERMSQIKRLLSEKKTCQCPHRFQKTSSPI
Briefly: NMR titration.

No end group written: not given here.

As to SHPEDDWMENIDVCENCHYPIVPLDGKGT (domain or fragment, human, UniProt P06239 7-35, looked up, cysteine pairing not given here; also: 15N isotope labelling) [recombinant Lck (residues 7-35), 15N-labelled], the “pKa of the pH-dependent disruption of the complex” value was determined as 4.55 ± 0.1.
